T1: human GnRH receptor (human, UniProt P30968 1-328)
T1 construct: whole, on cells; Endogenous receptor on human cancer cell lines; also called GnRHR1; gonadotropin releasing hormone receptor
T1 sequence (looked up): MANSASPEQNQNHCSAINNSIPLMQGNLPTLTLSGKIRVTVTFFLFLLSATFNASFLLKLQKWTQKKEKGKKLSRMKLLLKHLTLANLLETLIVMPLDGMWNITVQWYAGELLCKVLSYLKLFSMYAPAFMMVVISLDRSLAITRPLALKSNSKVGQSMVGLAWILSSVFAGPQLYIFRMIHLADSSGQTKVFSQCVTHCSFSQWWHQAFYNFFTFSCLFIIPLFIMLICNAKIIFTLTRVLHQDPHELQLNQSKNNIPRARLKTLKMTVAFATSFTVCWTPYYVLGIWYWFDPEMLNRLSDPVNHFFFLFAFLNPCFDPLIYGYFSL

B1: synthetic peptide corresponding to the N-terminal 1-29 amino acid residues of human GnRH receptor (peptide)
peptide: MANSASPEQNQNHCSAINNSIPLMQGNLP
notes: Custom synthesized; also called 1-29 synthetic peptide; 1-29 peptide
B2: GHR-106 monoclonal antibody (antibody, V domains shown)
VH: QVQLKESGPGLVAPSQSLSITCTVSGFSLSRYSVHWVRQPPGKGLEWLGMIWGGGSTDYNSALKSRLSISKDNSKSQVFLKMNSLQTDDTAMYYCARGNDGYYSFAYWGQGTLVTVSS
VL: DIVMSQSPSSLAVSAGEKVTMSCKSSQSLLNSRTRKNYLAWYQQKPGQSPKLLIYWASTRESGVPDRFTGSGSGTDFTLTISSVQAEDLAVYYCKQSYNLYTFGGGTKLEIK
notes: Murine hybridoma monoclonal antibody raised against the KLH-coupled 1-29 peptide of human GnRH receptor; detected with goat anti-mouse IgG; also called ATCC PTA-10252
B3: GHR-103 monoclonal antibody (antibody, V domains shown)
VH: B2 VH
VL: B2 VL
notes: Murine monoclonal

The target in assay [1] is B2. Briefly: competition cell ELISA, free peptide against GHR-106 on OC-3-VGH cells (FIG. 3B). A general note: An ELISA detects its analyte on a solid surface through an enzyme-linked reagent.
Assay [2] concerns the target B1. Description: ELISA on coated peptide.
A further assay has as its target T1, human GnRH receptor. Description: ELISA, microwells coated with 1-29 synthetic peptide or OC-3-VGH cancer cells, AP-labeled goat anti-mouse IgG.
The target of assay [3] is B1. Briefly: ELISA on coated peptide (FIG. 2A).

In the case of B1, the binding result in assay [1] is “binds”.

By Kd is commonly meant the constant that tells how readily two partners part at equilibrium. As to B2, the binding result in assay [2] is “binds”. Also, the affinity with human GnRH receptor, expressed as Kd, was 2 nM.

As for B3, the binding result in assay [3] was “binds”.
